Experimental data: patent publication US20250129145A1 (Ablynx, published 2025)

B1: TPP-66093 (VHH)
chain: EVQLVESGGGVVQPGGSLRLSCAASGLTFSSYAMGWFRQAPGKERERVVSISRGGGYTYYADSVKGRFTISRDNSKNTVYLQMNSLRPEDTALYYCAAARYWATGSEYEFDYWGQGTLVTVSSGGGGSGGGGSGGGGSGGGGSGGGGSGGGGSGGGGSEVQLVESGGGVVQPGGSLRLSCAASGFTFRSFGMSWVRQAPGKGPEWVSSISGSGSDTLYADSVKGRFTISRDNSKNTLYLQMNSLRPEDTALYYCTIGGSLSRSSQGTLVTVSSA
notes: also called ALBX00002-35GS-ALB23002-A; ALBX00002-35GS-Alb223
B2: TPP-66094 (VHH)
chain: EVQLVESGGGVVQPGDSLRLSCAASGGTFSTYVMGWFRQAPGKEREFVSAISQNSIHTYYANSVKGRFTISRDNSKNTVYLQLNSLRPEDTALYYCAASRFTSWYTADYEYDYWGQGTLVTVSSGGGGSGGGGSGGGGSGGGGSGGGGSGGGGSGGGGSEVQLVESGGGVVQPGGSLRLSCAASGFTFRSFGMSWVRQAPGKGPEWVSSISGSGSDTLYADSVKGRFTISRDNSKNTLYLQMNSLRPEDTALYYCTIGGSLSRSSQGTLVTVSSA
notes: also called T023500029-35GS-ALB23002-A; T023500029-35GS-Alb223
B3: TPP-66097 (other)
chain: LKEAKEKAIEELKKAGITSDYYFDLINKAKTVEGVNALKDEILKAGGGGSGGGGSGGGGSGGGGSGGGGSGGGGSGGGGSEVQLVESGGGVVQPGGSLRLSCAASGFTFRSFGMSWVRQAPGKGPEWVSSISGSGSDTLYADSVKGRFTISRDNSKNTLYLQMNSLRPEDTALYYCTIGGSLSRSSQGTLVTVSSA
notes: also called ABD-35GS-ALB23002-A; ABD-35GS-Alb223
B4: TPP-66099 (VHH)
chain: EVQLVESGGGVVQPGGSLRLSCAASGFTFRSFGMSWVRQAPGKGPEWVSSISGSGSDTLYADSVKGRFTISRDNSKNTLYLQMNSLRPEDTALYYCTIGGSLSRSSQGTLVTVSSGGGGSGGGGSGGGGSGGGGSGGGGSGGGGSGGGGSEVQLVESGGGVVQPGGSLRLSCAASGFTFRSFGMSWVRQAPGKGPEWVSSISGSGSDTLYADSVKGRFTISRDNSKNTLYLQMNSLRPEDTALYYCTIGGSLSRSSQGTLVTVSSGGGGSGGGGSGGGGSGGGGSGGGGSGGGGSGGGGSEVQLVESGGGVVQPGGSLRLSCAASGFTFRSFGMSWVRQAPGKGPEWVSSISGSGSDTLYADSVKGRFTISRDNSKNTLYLQMNSLRPEDTALYYCTIGGSLSRSSQGTLVTVSSA
notes: also called ALB23002-35GS-ALB23002-35GS-ALB23002-A
B5: TPP-66100 (VHH)
chain: EVQLVESGGGVVQPGGSLRLSCAASGLTFSSYAMGWFRQAPGKERERVVSISRGGGYTYYADSVKGRFTISRDNSKNTVYLQMNSLRPEDTALYYCAAARYWATGSEYEFDYWGQGTLVTVSSGGGGSGGGGSGGGGSGGGGSGGGGSGGGGSGGGGSEVQLVESGGGVVQPGDSLRLSCAASGGTFSTYVMGWFRQAPGKEREFVSAISQNSIHTYYANSVKGRFTISRDNSKNTVYLQLNSLRPEDTALYYCAASRFTSWYTADYEYDYWGQGTLVTVSSGGGGSGGGGSGGGGSGGGGSGGGGSGGGGSGGGGSEVQLVESGGGVVQPGGSLRLSCAASGFTFRSFGMSWVRQAPGKGPEWVSSISGSGSDTLYADSVKGRFTISRDNSKNTLYLQMNSLRPEDTALYYCTIGGSLSRSSQGTLVTVSSA
notes: also called ALBX00002-35GS-T023500029-35GS-ALB23002-A
B6: TPP-66101 (other)
chain: DLGKKLLEAARAGQDDEVRELLKAGADVNAKDYFSHTPLHLAARNGHLKIVEVLLKAGADVNAKDFAGKTPLHLAANEGHLEIVEVLLKAGADVNAQDIFGKTPADIAADAGHEDIAEVLQKAAGGGGSGGGGSGGGGSGGGGSGGGGSGGGGSGGGGSEVQLVESGGGVVQPGGSLRLSCAASGFTFRSFGMSWVRQAPGKGPEWVSSISGSGSDTLYADSVKGRFTISRDNSKNTLYLQMNSLRPEDTALYYCTIGGSLSRSSQGTLVTVSSGGGGSGGGGSGGGGSGGGGSGGGGSGGGGSGGGGSEVQLVESGGGVVQPGGSLRLSCAASGFTFRSFGMSWVRQAPGKGPEWVSSISGSGSDTLYADSVKGRFTISRDNSKNTLYLQMNSLRPEDTALYYCTIGGSLSRSSQGTLVTVSSA
notes: also called DARPIN-35GS-ALB23002-35GS-ALB23002-A
B7: TPP-66102 (VHH)
chain: EVQLVESGGGVVQPGGSLRLSCAASGFTFRSFGMSWVRQAPGKGPEWVSSISGSGSDTLYADSVKGRFTISRDNSKNTLYLQMNSLRPEDTALYYCTIGGSLSRSSQGTLVTVSSGGGGSGGGGSGGGGSGGGGSGGGGSGGGGSGGGGSEVQLVESGGGVVQPGGSLRLSCAASGFTFRSFGMSWVRQAPGKGPEWVSSISGSGSDTLYADSVKGRFTISRDNSKNTLYLQMNSLRPEDTALYYCTIGGSLSRSSQGTLVTVSSGGGGSGGGGSGGGGSGGGGSGGGGSGGGGSGGGGSEVQLVESGGGVVQPGGSLRLSCAASGFTFRSFGMSWVRQAPGKGPEWVSSISGSGSDTLYADSVKGRFTISRDNSKNTLYLQMNSLRPEDTALYYCTIGGSLSRSSQGTLVTVSSGGGGSGGGGSGGGGSGGGGSGGGGSGGGGSGGGGSEVQLVESGGGVVQPGGSLRLSCAASGFTFRSFGMSWVRQAPGKGPEWVSSISGSGSDTLYADSVKGRFTISRDNSKNTLYLQMNSLRPEDTALYYCTIGGSLSRSSQGTLVTVSSA
notes: also called ALB23002-35GS-ALB23002-35GS-ALB23002-35GS-ALB23002-A
B8: IRR00164 (VHH)
VHH: EVQLVESGGGVVQPGGSLRLSCAASGFTFRSFGMSWVRQAPGKGPEWVSSISGSGSDTLYADSVKGRFTISRDNSKNTLYLQMNSLRPEDTALYYCTIGGSLSRSSQGTLVTVSS
notes: also called CNB-9GS-CNB-9GS-CNB-9GS-ALB23002-A; CNB-CNB-CNB-Alb223
B9: TPP-66095 (other)
chain: DLGKKLLEAARAGQDDEVRELLKAGADVNAKDYFSHTPLHLAARNGHLKIVEVLLKAGADVNAKDFAGKTPLHLAANEGHLEIVEVLLKAGADVNAQDIFGKTPADIAADAGHEDIAEVLQKAAGGGGSGGGGSGGGGSGGGGSGGGGSGGGGSGGGGSEVQLVESGGGVVQPGGSLRLSCAASGFTFRSFGMSWVRQAPGKGPEWVSSISGSGSDTLYADSVKGRFTISRDNSKNTLYLQMNSLRPEDTALYYCTIGGSLSRSSQGTLVTVSSA
notes: also called DARPIN-35GS-ALB23002-A; DARPIN-35GS-Alb223

Columns and labels:
human serum albumin [1] = molecular target: T1, human serum albumin (human, UniProt P02768 25-609); experiment: SPR, pH 7.4, immobilized HSA density ~3000 RU
T1 construct: Bought protein; also called HSA
Description: (§1) The purified multivalent albumin binding constructs were also tested in SPR on different densities of HSA (100 RU until 6700 RU) to detect avidity.

human serum albumin [2] = molecular target: T1, human serum albumin; experiment: SPR Biacore 8K+, HSA immobilized (C1 chip), pH 7.4, bivalent analyte fit (kd1)
Description: (§2) The affinities of the purified multivalent albumin binding constructs for HSA at pH 7.4 was determined on a Biacore 8K+ instrument. HSA (Sigma-Aldrich—Sigma, Cat No. A8763) was immobilized on a Series S Sensor Chip C1. The multivalent albumin binding proteins as described in Table 12 above were injected at 9 different concentrations (between 1.6 and 2500 nM) and allowed to associate for 120 s at 30 μL/min and dissociate for 600 s.

human serum albumin [3] = molecular target: T1, human serum albumin; experiment: SPR Biacore 8K+, HSA immobilized (C1 chip), pH 7.4, bivalent analyte fit (ka1)
Description: as §2

human serum albumin [4] = molecular target: T1, human serum albumin; experiment: SPR, pH 7.4, immobilized HSA density ~6700 RU
Description: as §1

human serum albumin [5] = molecular target: T1, human serum albumin; experiment: SPR Biacore 8K+, HSA immobilized (C1 chip), pH 7.4, bivalent analyte fit (KD1)
Description: as §2

human serum albumin [6] = molecular target: T1, human serum albumin; experiment: SPR, pH 7.4, immobilized HSA density ~500 RU
Description: as §1

human serum albumin [7] = molecular target: T1, human serum albumin; experiment: SPR Biacore 8K+, HSA immobilized (C1 chip), pH 7.4, bivalent analyte fit
Description: as §2

human serum albumin [8] = molecular target: T1, human serum albumin; experiment: SPR, pH 7.4, immobilized HSA density ~100 RU
Description: as §1

Binder	koff (human serum albumin [1]) [s⁻¹]	koff (human serum albumin [2]) [s⁻¹]	kon (human serum albumin [3]) [M⁻¹ s⁻¹]	koff (human serum albumin [4]) [s⁻¹]	Kd (human serum albumin [5]) [nM]	koff (human serum albumin [6]) [s⁻¹]	ka2 (bivalent analyte fit) (human serum albumin [7]) [M⁻¹ s⁻¹]	kd2 (bivalent analyte fit) (human serum albumin [7]) [s⁻¹]	koff (human serum albumin [8]) [s⁻¹]
B1	6.6e-05	0.00012	180000	5.2e-05	0.66	8.6e-05	0.00012	0.00084	0.00011
B2	7.6e-05	0.00013	270000	5.6e-05	0.49	9.3e-05	0.00027	0.0022	0.00012
B3	8.4e-05	1.5e-05	180000	6e-05	0.082	0.00012	0.0023	0.0088	7.4e-05
B4	7.2e-05	0.0005	370000	3.6e-05	1.4	0.00018	0.0022	0.0038	0.00041
B5	0.00036	0.00034	200000	0.00032	1.7	0.00032	0.0074	0.026	0.00027
B6	0.0001	0.0015	300000	4e-05	5	0.00023	95	65	0.00076
B7	3.6e-05	0.00055	280000	1.4e-05	2	0.00012	0.005	0.0066	0.00043
B8	0.0016			0.0012		0.002			
B9	0.00016			8.3e-05		0.00038			0.00021
